Data reported in patent US20140234975.

Tests used:
Assay in all cases: cell_activity
[1] = test system: T1, SC_RAG single-chain meganuclease (engineered); settings: 293H endogenous locus; 4.69 with TREX2, 5.41 with scTREX2
T1 sequence: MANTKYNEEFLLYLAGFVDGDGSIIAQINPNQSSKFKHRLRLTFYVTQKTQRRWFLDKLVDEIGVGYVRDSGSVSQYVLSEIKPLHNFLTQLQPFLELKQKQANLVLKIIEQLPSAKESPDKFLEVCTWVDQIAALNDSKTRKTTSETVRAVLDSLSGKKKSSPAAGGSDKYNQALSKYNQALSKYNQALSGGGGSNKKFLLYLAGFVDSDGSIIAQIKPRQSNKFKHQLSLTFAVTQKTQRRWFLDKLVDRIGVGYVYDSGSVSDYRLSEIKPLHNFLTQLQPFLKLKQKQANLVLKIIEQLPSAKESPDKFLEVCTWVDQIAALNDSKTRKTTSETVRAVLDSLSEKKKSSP

[2] = test system: T2, scTrex2-SC_RAG (engineered (human TREX2 fusion)); settings: 293H endogenous locus
T2 sequence: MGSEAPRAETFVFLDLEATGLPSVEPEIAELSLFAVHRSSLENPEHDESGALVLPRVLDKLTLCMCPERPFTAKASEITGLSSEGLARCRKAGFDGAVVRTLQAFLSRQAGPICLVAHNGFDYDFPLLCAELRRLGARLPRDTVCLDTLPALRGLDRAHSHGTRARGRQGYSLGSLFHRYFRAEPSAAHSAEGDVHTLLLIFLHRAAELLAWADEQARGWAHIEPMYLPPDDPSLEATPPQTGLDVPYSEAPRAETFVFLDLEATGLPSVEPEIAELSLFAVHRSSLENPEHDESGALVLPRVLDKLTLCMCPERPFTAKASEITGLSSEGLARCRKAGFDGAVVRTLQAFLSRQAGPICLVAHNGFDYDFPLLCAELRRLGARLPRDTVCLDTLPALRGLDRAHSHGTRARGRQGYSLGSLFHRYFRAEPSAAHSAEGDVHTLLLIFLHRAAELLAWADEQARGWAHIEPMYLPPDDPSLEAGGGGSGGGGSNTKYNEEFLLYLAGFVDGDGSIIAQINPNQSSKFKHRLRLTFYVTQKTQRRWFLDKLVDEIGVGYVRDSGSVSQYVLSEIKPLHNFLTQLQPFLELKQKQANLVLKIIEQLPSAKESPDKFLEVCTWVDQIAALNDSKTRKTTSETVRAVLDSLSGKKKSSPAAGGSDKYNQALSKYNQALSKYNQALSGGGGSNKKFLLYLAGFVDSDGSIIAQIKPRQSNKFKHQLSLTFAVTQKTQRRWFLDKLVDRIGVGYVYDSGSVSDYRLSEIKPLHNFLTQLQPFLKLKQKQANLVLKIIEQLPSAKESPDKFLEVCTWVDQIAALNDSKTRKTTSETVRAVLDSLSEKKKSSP

[3] = test system: T3, SC_CAPNS1 single-chain meganuclease (engineered); settings: 293H endogenous locus; 18.25 with TREX2, 25.4 with scTREX2
T3 sequence: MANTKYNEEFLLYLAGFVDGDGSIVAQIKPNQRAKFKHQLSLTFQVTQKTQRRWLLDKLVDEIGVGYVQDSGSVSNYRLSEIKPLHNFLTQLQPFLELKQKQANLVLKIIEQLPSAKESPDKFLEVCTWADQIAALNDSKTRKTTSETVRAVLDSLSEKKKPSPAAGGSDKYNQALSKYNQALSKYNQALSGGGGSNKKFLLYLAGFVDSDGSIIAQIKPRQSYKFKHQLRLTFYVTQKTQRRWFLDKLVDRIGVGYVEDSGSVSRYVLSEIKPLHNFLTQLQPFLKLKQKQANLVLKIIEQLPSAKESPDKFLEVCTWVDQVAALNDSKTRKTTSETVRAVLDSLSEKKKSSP

[4] = test system: T4, scTrex2-SC_CAPNS1 (engineered (human TREX2 fusion)); settings: 293H endogenous locus
T4 sequence: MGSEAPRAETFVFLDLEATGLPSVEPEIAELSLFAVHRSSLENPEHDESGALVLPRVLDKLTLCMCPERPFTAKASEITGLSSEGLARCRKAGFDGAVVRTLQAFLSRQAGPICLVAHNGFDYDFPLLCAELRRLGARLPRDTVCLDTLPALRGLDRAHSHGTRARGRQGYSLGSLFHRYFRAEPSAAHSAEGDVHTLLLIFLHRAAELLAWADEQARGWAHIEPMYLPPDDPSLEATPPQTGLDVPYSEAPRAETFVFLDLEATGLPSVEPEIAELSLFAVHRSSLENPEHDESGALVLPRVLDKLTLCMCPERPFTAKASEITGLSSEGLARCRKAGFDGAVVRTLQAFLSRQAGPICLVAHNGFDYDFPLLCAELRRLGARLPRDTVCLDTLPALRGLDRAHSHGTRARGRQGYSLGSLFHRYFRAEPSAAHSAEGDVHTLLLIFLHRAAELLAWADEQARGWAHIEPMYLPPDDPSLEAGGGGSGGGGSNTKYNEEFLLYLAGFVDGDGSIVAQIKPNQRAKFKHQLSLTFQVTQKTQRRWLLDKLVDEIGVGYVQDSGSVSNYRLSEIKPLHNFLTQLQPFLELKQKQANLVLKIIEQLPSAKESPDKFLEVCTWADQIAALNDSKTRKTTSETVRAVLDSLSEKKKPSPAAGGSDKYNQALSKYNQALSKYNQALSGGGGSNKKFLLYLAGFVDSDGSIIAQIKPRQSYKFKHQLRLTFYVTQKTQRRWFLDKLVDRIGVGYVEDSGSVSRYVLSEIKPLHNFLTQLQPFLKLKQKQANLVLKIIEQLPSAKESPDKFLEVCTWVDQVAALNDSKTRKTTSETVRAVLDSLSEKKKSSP

Substance | activity (% targeted mutagenesis) [1] | activity (% targeted mutagenesis) [2] | activity (% targeted mutagenesis) [3] | activity (% targeted mutagenesis) [4]
RAG1 locus target | 1.4 | 8.42 | – | –
CAPNS1 locus meganuclease target | – | – | 15.2 | 35.8
